In experiment [1] the target is T1, C4.4A-DIDII^1-199 fused to a C-terminal uPAR DIII purification tag (Homo sapiens, UniProt O95274).
T1 construct: C4.4A (LYPD3), human, both LU-domains DI and DII, residues 1-199; also called C4.4A-DIDII (blot construct); not shown: uPAR DIII, C-terminal, kept
Nature of the experiment: far-Western, overlay or dot blot; immunoblot: purified C4.4A domain constructs, unreduced (lanes 1-6), separated by SDS-PAGE and immobilized on a PVDF membrane; 1 µg/mL mAb 11H10 as primary antibody, peroxidase-conjugated anti-mouse immunoglobulins, ECL. The note with it: both partners purified. (In general: In western blotting, separated proteins are transferred to a membrane and probed.)

Experiment [2] has as its target T2, C4.4A^1-278 fused to a C-terminal uPAR DIII purification tag (Homo sapiens, UniProt O95274).
T2 construct: C4.4A (LYPD3), human, DI, DII and STP-rich region, residues 1-278; also called C4.4A-ent-uPAR-DIII; not shown: uPAR DIII, C-terminal, kept
The experiment is described as above. The following applies: both partners purified.

T1 sequence (O95274 whole entry, looked up, the tested form may be a part): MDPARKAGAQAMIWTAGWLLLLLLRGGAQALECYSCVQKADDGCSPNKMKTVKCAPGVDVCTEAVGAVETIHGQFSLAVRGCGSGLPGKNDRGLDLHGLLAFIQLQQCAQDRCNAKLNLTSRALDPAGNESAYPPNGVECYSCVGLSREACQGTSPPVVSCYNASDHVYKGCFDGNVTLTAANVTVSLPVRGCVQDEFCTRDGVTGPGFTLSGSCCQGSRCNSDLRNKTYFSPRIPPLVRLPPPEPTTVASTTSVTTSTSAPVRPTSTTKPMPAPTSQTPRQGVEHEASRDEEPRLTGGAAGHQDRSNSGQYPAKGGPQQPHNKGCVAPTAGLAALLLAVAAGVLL
T2 sequence (O95274 whole entry, looked up, the tested form may be a part): as above

B1: mouse monoclonal anti-human C4.4A antibody 11H10 (antibody, V domains shown)
VH: QVTLKESGPGILQPSQTLSLTCSFSGFSLNSFGTGVGWIRQPSGKGLEWLAHIWWNDYKYYNAALESRLTISKDTSNNQVFLKIASVDTADTATYYCARLRLRYFDYWGQGTTLTVSS
VL: DILMTQSPAILSVSPGEGVSFSCWANQNIGTSIHWYQQRTNGSPRLLIKYASESISGIPSRFSGSGSGTDFTLSINSVESEDIADYYCQQSNSWPIFTFGSGTKLEIK
notes: 11H10 light chain (kappa), printed as the Fab light chain; 11H10 heavy chain VH, CH1 and start of the hinge, printed as the Fab heavy chain; mouse IgG1 heavy chain constant region, the rest of the hinge, CH2 and CH3 that follow the printed Fd (ends VPRDC); IgG1 kappa; also called mAb 11H10; source: mouse hybridoma (FVB mice immunized with recombinant human C4.4A), purified
As to B1, the binding result in experiment [1] and in experiment [2] was “binds” each time.
